According to the supplement of paper PMC9170038:

System: K4 kissing-loop RNA reporter
Assay: apparent KD of K4 kissing-loop reporter; higher = weaker reporter binding
Conditions: Eterna round: R107
Experimental: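 RNA-MaP round R107: designed RNA switches with theophylline, tryptophan, arginine or FMN aptamers are transcribed on-chip within common flanks. They are titrated with a labelled K4 kissing-loop RNA reporter in RNA-MaP buffer (100 mM Tris pH 7.5, 80 mM KCl, 4 mM MgCl2), without ligand or with the indicated ligand. Median apparent KD per design.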

[1] = input ligand: theophylline 20 uM
[2] = input ligand: tryptophan 2.4 mM
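Further: bound reporter read as fluorescence of individual clusters on recovered sequencing chips by microscopy, with normalized cluster intensities fitted with a binding model.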

Sequence	apparent KD of K4 kissing-loop reporter (input ligand: FMN 200 uM) [µM]	apparent KD of K4 kissing-loop reporter (input ligand: arginine 13.2 mM) [µM]	apparent KD of K4 kissing-loop reporter (input ligand: none) [µM]	apparent KD of K4 kissing-loop reporter [1] [µM]	apparent KD of K4 kissing-loop reporter [2] [µM]
UGACAUUGCUCAGAUACCAGACAUGAGCAUCAGCCAUGUGCCAAACGUACAAUAAUAAAUGUCCCUUGGCAGCUGAGCAAUGUCU [TheoBX 14]	0.0742	0.0331	0.0531	0.1	0.0448
AAGUGAUGUUGUAGUGAUGUUGUGAUGUUGCAGGAUAUAUAGUGAUGUAGAAGGGUAUGUGCAGUUUUCUUAUUUGAGUGUUGAU [zwzamullin]	0.0759	0.0332	0.0626	0.0495	0.0613
UGACUGGAUGGAAGGAGCGCUAAACUCCUAGUGAUGUUAGGGAUACGAGGCAAAGCCUCGAGGCAGGUAGGUCGCCAUCUAGUCU [FiskerMod 24 - Jieux - Same State - Arginine B]	0.167	0.129	0.124	0.147	0.136
CUCCAACUUGAUGAUACCAGAGAGGAGGAAGUGAUGUUGACUCCGGCUACAUACUGGCGACUCCCUUGGCAGCAUUACGUCAUCC [theeternabot_sameState_KL_Theo_B_3]	0.389	0.265	0.318	0.417	0.353
AGUGGACGUGUCUAGAGUGAUGUUCCGGAUACCAGACACGAAAGUGUCCCUUGGCAGCCGGAGUGAUGUUCUGGCGUUCACUAAA [Omei KL Theo A Exc B v6]	0.647	0.296	0.549	0.459	0.44
AAGUGAUGUUGUAGUGAUGUUGUGAUGUUGCAGGAUAUAUAGUGAUGUAGAAGGGUAUGUACUUAUUUUUUAUUUGAGUUAUGUU [mmvmmullin]	0.0721	0.0298	0.0561	0.0439	0.0572
UGCACGGGCUCGGCCGCCACUCCCGCGGGUCGAAAGGUCCGCUACUGAGUGAUGUUCGGUUGGAGGAGGACCGGGAGCCCGUGCA [#2 Exclusion - Tryptophan B Attempt #24 (HarryS)]	0.0956	0.0929	0.108	0.0697	0.0692
GCAGGACGAGGAGGAGGAUGAAUUACUGAAGGAGCGCAUAUUUUUGCAGGUAGGUCGCGGUAAACAAGUAUAGUGAUGUUAUAUC [SSArgA.N]	0.445	0.234	0.372	0.459	0.443
UGAUACCAGACUGAUACCAGCCAGUGAUGUUGGCUAAGCCGAAGAGGUGUCAAAGACACCGGCCCUUGGCAGCAGUCUGGUAUCU [#06 K4 Theophylline B Exclusion]	0.132	0.117	0.114	0.117	0.117
AAGUGAUGUUGUAGUGAUGUUGUGAUGUUGCAGGAUAUAUAGUGAUGUAGAAGGGUAUGUGCAGUGUUGUUGUUUGAGUGUUCAU [dttyumullin]	0.0954	0.0418	0.0737	0.0747	0.0684
GGUAGCAUGGCGGCCGCCACUCUUCAUUAGUGAUGUUAAUGCCGAGUGCGCUAACUCCUACGGGAGAGGACCGGGCCAUGCUACC	1.22	0.00443	0.0258	0.919	0.0146
UGUCUUUUUUUGAUGUUUUUUGUAUAAUGGCAGGAUAUCGUAGAGGCGAGAAGGGCUUUUAUGCGUUAUGAGUGAUGUUUGUAGG [vevvmullin]	0.321	0.24	0.302	0.295	0.22
GGAGUUACCUGGGAUACCAGUCGGAGUCUCAGAGCUCGGAGUGAUGUUCUGGGAUGUUUCGGCCCUUGGCAGCUCUGGGACUCCA [#2 Exclusion - Theophylline B Attempt #16 (HarryS)]	0.924	0.627	0.863	0.843	0.707
GAUUCAGUGAUGUUGGAAGGCGAGCGGGAUACCAGCCAAGACUCAGGCCCUUGGCAGCCCACAUAUCCCAGGUAGAUAGUAGCUC [Same State - Theophylline A (Freestyle 12)]	0.168	0.111	0.142	0.146	0.132
UAUACUAGACAAGAGAGAAUUCUCUCAAGAGAGGAUAUCCGAAUUCGGAGAAGGCUCGCUAAGUGAUGUUUGGAAUAGUCUAGAA [AK4 SS FMN A]	0.418	0.352	0.339	0.319	0.384
UUCUUGAUGGAAACAUCGAGGAUUACUGAUACCAGUAUCGAUAGAUACCCUUGGCAGCAGAAUCAGUAAUCACGAGUGAUGUUCG [Ex Theophylline A K4 6]	0.662	0.497	0.841	0.583	0.46
AGACUACUGACAGGAUAUAACAUACUAGCUCGUAUACCAAAGGUAUACGAGCACCUUCUAGUGAUGUUAGAAGGGUCGGUAGUCA [Omei KL FMN B Exc B v2]	0.412	0.264	0.3	0.31	0.31
GAUAUAGUGAUGUUAUAUGGGAAGGAGUUACGAGGACCGGUACGGCCGCCACUCGAAACGAGUGAGGAUUUGGGAGAUUGGGUUU [SSTryptA.R]	0.369	0.386	0.376	0.488	0.235
GACUGGUUAACGAGUGAUGUUCGAUGGGAAGGAGCGCGCAGAAGUGCAGGUAGGUCGCCCUAUAACCAGGAAAUGGCUGGAUUAU [3.)]	0.205	0.224	0.205	0.252	0.145
GCAGGACGAGGAGGAGGAUGAAUUACUGAAGGAGCGCAUAUUGUUGCAGGUAGGUCGCGGUAAACAAGUAUAGUGAUGUUAUAUC [SSArgA.O]	0.77	0.27	0.877	0.695	0.416
ACCUACCAUUAGUGAUGUUAAUGGACGGAAGGAGCGCGGAUAUCUGCAGGUAGGUCGCCGAAGGCUAGACAUUGUCUAGCCAUUA [AK1 SS Arginine A]	0.149	0.113	0.131	0.107	0.12
UGUAUGUGAUUUGAUACCAGACCAGCUGGUGGAAUCUGAGUGAUGUUCAGGUAGGUUUGGGUCCCUUGGCAGCAAAUCGCAUACU [KL-SSTheoB27]	0.203	0.145	0.182	0.181	0.17

Sequence	apparent KD of K4 kissing-loop reporter (input ligand: FMN 200 uM) [µM]	apparent KD of K4 kissing-loop reporter (input ligand: arginine 13.2 mM) [µM]	apparent KD of K4 kissing-loop reporter (input ligand: none) [µM]	apparent KD of K4 kissing-loop reporter [1] [µM]	apparent KD of K4 kissing-loop reporter [2] [µM]
UCUUUAGUAUAUGAUACCAGCAGUGAGAGACAGGAAGUAUAGUGAUGUUAUAUGAGAGAAUGCCCUUGGCAGCGUGUGCGGUGGG [SSTheophylB.T]	0.132	0.103	0.0934	0.119	0.101
UGGCGAGUGAUGUUCGUUGUUGUAGUGUGCCGAGGACCGGUACGGCCGCCACUCGGGUUGGUUGUUGUUGUUGUUGUUGUUGUUG [whbob_SS_tryp_A]	0.127	0.11	0.112	0.119	0.0761
UGGAUAUAGUGAUGUUAUAUAGAGAUGGAUACCAGCUGAGAGAAUAGCCCUUGGCAGCCGAAAGAAGUAUCAUUAGAGAAGAAUG [ExTheophyl.Aj]	0.248	0.188	0.231	0.271	0.172
GCGCGGCUCAGUGAUGUUGAGCCUCGGAAACGAGGACCGGUACGGCCGCCACUCGUCCGCGCAGCUGAGGCAAAAGCCUCGGCUA [Omei KL Tryp A SS B v2]	0.468	0.31	0.484	0.48	0.273
AAAUAAAUCGGAGGAUAUCCUUCCCACGUCGAAGUACCGUGCUUGAUGGAGUGAUGUUCGAUCAGAGGAGAAGGCCGAUAAAUAA [Same State FMN B GF20]	1.04	0.732	1.04	0.924	0.777
CAAACGGGUUGGCUUGGAGACUGCAGACGCAAGGAUAUCGCGAAGACGAGAAGGUGCGGGCCUGGUAGUGAUGUUACAGUUUGGU [theeternabot_sameState_KL_FMN_A_21]	0.358	0.326	0.395	0.367	0.254
GGUUUAUAGGAGGAUACCAGUACGAAUAAAGUACAUUAAUAGUAGAGUGAUGUUCUAAAGUACCCUUGGCAGCUUAGAUUAAGUU [ExTheophylB.H]	0.102	0.18	0.116	0.166	0.0779
GCCGUAGAUCGAAGGAGCGUGUCCAAACCUCAUUCAUGUACACACGAGUGAUGUUCGUGUACACAGGUAGGUCGCGAUCUACGGC [#04 K4 Arginine B Exclusion]	0.344	0.281	0.331	0.294	0.31
AACUCUCACUGGAGUGAUGUUCUGGAAAACCGAGGACCGGUACGGCCGCCACUCGGAAAUGAGAGAGUCCUACGAAAAGUAGGAC [Omei inspired 1]	0.191	0.213	0.217	0.255	0.139
GAAUGGAGUGAUGUUCCAUUAACGAUCCUACGAGGACCGGUACGGCCGCCACUCGUAUUGCAGUGAUGUUGCAACCAGCCGUACU [Exclusion Tryptophan A GF 9]	0.111	0.113	0.114	0.111	0.102
ACUACGAAGACGGCCGCCACUGAUAUUCGUAGAUCCAUCAUUGCAUGAGUGAUGUUCAUGUAUAUCAGGACCGGGUCAAGAUGGU [KL-XTryp-B18 #analogue]	0.295	0.245	0.305	0.282	0.213
AUUAUAUAGGCGGCCGCCACUAGUGAUGUUAGUGACUUUAUGAAAACAUAAAGAAUAAAAUAAUAUAGGACCGGGCCAUAAUAUU [AstrosExTryB#5]	0.475	0.369	0.45	0.427	0.432
AAGGGCUAGGCGGCCGCCACUGGUCGUGUACACAUACGAACCAGUGAUGUUGGUAUUGUAUGCGACAGGACCGGGCCUAGCCGAA [Exclusion - Tryptophan B (Freestyle 27)]	0.313	0.194	0.249	0.364	0.291
AGUACAAUGGCGGCCGCCACUCAACGCAGAUCAAAGAUCUGCAUUCACUCAGUGAUGUUGAGUGAGAGGACCGGGCCUUUGUACA [Omei KL Tryp B SS B v1]	0.701	0.581	0.637	0.58	0.189
CACAAUUAAUUACAGUGAUGUUGUAAUCUGCGAGGACCGGUACGGCCGCCACUCGGGCUUGUAGGGCGCCCACAUUCUUAUACUA [theeternabot_sameState_KL_Trp_A_29]	0.447	0.348	0.426	0.428	0.36
UGUACCGAGUCAGGAUAUGGCGUCGAAAGACGAAUCGUAGUGAUGUUACGGAUCUGCGAAAGCAGUCCAGAAGGGACUUGGUACU [FmnBS 26 G37+C49]	0.125	0.172	0.163	0.155	0.182
ACGCUAGCUACCGAAAGGUAGCUAGCGAGUGAGGAUAUGUGGAAACACAGAAGGCACAGCACAGUGAUGUUGUGCGGCGAAAGCC	0.587	0.249	0.932	0.522	0.729
AGGACGGUUAUGGAUACCAGUCCGGAACUUGUCCAUGGAGUGAUGUUCCGUCCAGCUCCGGACCCUUGGCAGCCAGACUGCUGAA [theeternabot_sameState_KL_Theo_B_41]	0.185	0.189	0.192	0.138	0.198
UGCUGUCAAUAAGAUACCAGUUGGACUGAGUGAUGUUCAUCCAUUAUAUCUAUUCUGCUUAACCCUUGGCAGCUUGAUGACGUUU [theeternabot_exclusion_KL_Theo_B_6]	0.174	0.149	0.18	0.191	0.182
UGUAUGGACUGAAGGAGCGGUAGAUAAACUGAGUGAUGUUCGGCAAAUAAAGGCGCAAGCCACCAGGUAGGUCGCAGUCCAUACU [KL-SSArg B1]	0.289	0.182	0.235	0.236	0.205
GCCGUAGAUUGAAGGAGCGUGGAACUAUGGCUUGAACAGUGAUGUUGUUUAUCUAGGUAGCCGCAGGUAGGUCGCAAUCUACGGC	0.263	0.25	0.27	0.239	0.229
